In article PMC10879843 one finds coprecipitated Homer, SPKO/WT ratio data, which are given here for one substance.

The assay addresses metabotropic glutamate receptor 5 (mouse (endogenous in brain cortex)) (UniProt Q3UVX5). The assay can be described thus: co-IP; mGluR5 immunoprecipitated with rabbit anti-mGluR5 on protein G magnetic beads from brain cortex lysates of 1 month-old WT and SPKO (synaptopodin knockout) mice; 20 mM Tris-HCl pH 7.4, 5 mM EDTA, 100 mM NaCl, 1% Triton X-100; overnight at 4 °C; immunoblot with anti-pan-Homer. On the technique in general: In western blotting, separated proteins are transferred to a membrane and probed.
UniProt Q3UVX5, sequence (Q3UVX5 19-1203): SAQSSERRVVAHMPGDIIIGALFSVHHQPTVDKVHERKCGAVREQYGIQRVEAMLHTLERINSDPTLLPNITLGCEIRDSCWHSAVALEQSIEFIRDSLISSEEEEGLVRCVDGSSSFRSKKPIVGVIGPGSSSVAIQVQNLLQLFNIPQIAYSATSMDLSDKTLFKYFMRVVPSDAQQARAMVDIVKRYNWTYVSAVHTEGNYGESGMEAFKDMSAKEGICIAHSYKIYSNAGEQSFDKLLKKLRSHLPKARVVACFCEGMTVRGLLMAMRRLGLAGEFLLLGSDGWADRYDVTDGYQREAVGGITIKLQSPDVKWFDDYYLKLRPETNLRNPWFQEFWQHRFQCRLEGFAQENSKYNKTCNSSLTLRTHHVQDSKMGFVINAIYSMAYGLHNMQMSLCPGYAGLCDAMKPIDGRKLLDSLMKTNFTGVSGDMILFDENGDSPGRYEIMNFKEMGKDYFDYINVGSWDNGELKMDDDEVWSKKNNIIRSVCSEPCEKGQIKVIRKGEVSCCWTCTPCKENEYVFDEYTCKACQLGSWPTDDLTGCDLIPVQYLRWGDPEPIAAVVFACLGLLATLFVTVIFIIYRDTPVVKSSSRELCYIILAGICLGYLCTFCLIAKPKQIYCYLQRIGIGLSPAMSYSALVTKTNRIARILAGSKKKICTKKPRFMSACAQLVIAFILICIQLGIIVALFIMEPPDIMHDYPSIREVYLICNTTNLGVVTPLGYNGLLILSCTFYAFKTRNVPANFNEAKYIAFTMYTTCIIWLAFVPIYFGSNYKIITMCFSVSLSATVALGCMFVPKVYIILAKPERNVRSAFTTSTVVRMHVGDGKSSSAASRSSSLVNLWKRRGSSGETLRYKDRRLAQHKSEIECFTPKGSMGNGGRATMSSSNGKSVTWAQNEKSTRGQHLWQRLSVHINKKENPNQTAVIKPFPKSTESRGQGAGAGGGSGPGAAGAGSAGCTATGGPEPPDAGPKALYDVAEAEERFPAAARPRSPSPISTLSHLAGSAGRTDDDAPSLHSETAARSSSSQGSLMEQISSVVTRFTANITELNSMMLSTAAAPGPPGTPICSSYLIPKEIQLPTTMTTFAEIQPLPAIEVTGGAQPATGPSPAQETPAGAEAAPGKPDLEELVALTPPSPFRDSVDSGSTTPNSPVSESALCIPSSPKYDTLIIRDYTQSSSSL

With “Homer (long form) (from UniProt Q9Z2Y3 1-366) (natural protein)”, the coprecipitated Homer, SPKO/WT ratio turned out to be 0.4.
